# Experimental data from the Human Domainome abundance scans (Beltran et al. 2025).
# ± gives the uncertainty stated by the source.
# Experiment: abundance fitness (aPCA) (normalised: wild type 0, dead -1); higher = more abundant; growth selection in yeast, the domain comes from the species named
# Details: Homo sapiens
row,Substance,abundance fitness
1,"Lipoamide acyltransferase component of branched-chain alpha-keto acid dehydrogenase complex, mitochondrial A173E, P11182",-0.219 ± 0.07
2,"Lipoamide acyltransferase component of branched-chain alpha-keto acid dehydrogenase complex, mitochondrial V191D, P11182",-0.522 ± 0.092
3,"Lipoamide acyltransferase component of branched-chain alpha-keto acid dehydrogenase complex, mitochondrial L180R, P11182",-0.563 ± 0.046
4,"Lipoamide acyltransferase component of branched-chain alpha-keto acid dehydrogenase complex, mitochondrial G195V, P11182",-0.702 ± 0.059
5,"Lipoamide acyltransferase component of branched-chain alpha-keto acid dehydrogenase complex, mitochondrial T171V, P11182",0.019 ± 0.057
6,"Nanos homolog 2 Q107R, P60321",-0.016 ± 0.12
7,"Lipoamide acyltransferase component of branched-chain alpha-keto acid dehydrogenase complex, mitochondrial K196T, P11182",-0.079 ± 0.044
8,"Lipoamide acyltransferase component of branched-chain alpha-keto acid dehydrogenase complex, mitochondrial Y208L, P11182",-0.032 ± 0.047
9,"Lipoamide acyltransferase component of branched-chain alpha-keto acid dehydrogenase complex, mitochondrial A173Q, P11182",-0.441 ± 0.048
10,"Lipoamide acyltransferase component of branched-chain alpha-keto acid dehydrogenase complex, mitochondrial R178G, P11182",-0.361 ± 0.046
11,"Lipoamide acyltransferase component of branched-chain alpha-keto acid dehydrogenase complex, mitochondrial K211S, P11182",-0.044 ± 0.04
12,"Lipoamide acyltransferase component of branched-chain alpha-keto acid dehydrogenase complex, mitochondrial E210P, P11182",-0.081 ± 0.056
13,"Lipoamide acyltransferase component of branched-chain alpha-keto acid dehydrogenase complex, mitochondrial Q212I, P11182",-0.255 ± 0.089
14,"Lipoamide acyltransferase component of branched-chain alpha-keto acid dehydrogenase complex, mitochondrial E203C, P11182",-0.053 ± 0.075
15,"Lipoamide acyltransferase component of branched-chain alpha-keto acid dehydrogenase complex, mitochondrial K202L, P11182",-0.118 ± 0.047
16,"Lipoamide acyltransferase component of branched-chain alpha-keto acid dehydrogenase complex, mitochondrial D197S, P11182",-0.205 ± 0.041
17,"Lipoamide acyltransferase component of branched-chain alpha-keto acid dehydrogenase complex, mitochondrial K202W, P11182",-0.276 ± 0.056
18,"Lipoamide acyltransferase component of branched-chain alpha-keto acid dehydrogenase complex, mitochondrial S189T, P11182",-0.033 ± 0.046

row,Substance,abundance fitness
1,"Lipoamide acyltransferase component of branched-chain alpha-keto acid dehydrogenase complex, mitochondrial V192M, P11182",-0.066 ± 0.1
2,"Lipoamide acyltransferase component of branched-chain alpha-keto acid dehydrogenase complex, mitochondrial L209K, P11182",0.079 ± 0.087
3,"Lipoamide acyltransferase component of branched-chain alpha-keto acid dehydrogenase complex, mitochondrial L180I, P11182",-0.194 ± 0.11
4,"Lipoamide acyltransferase component of branched-chain alpha-keto acid dehydrogenase complex, mitochondrial D204T, P11182",-0.973 ± 0.064
5,"Lipoamide acyltransferase component of branched-chain alpha-keto acid dehydrogenase complex, mitochondrial P175Q, P11182",-0.008 ± 0.048
6,"Lipoamide acyltransferase component of branched-chain alpha-keto acid dehydrogenase complex, mitochondrial Q212L, P11182",-0.189 ± 0.043
7,"Lipoamide acyltransferase component of branched-chain alpha-keto acid dehydrogenase complex, mitochondrial N207I, P11182",-0.261 ± 0.14
8,"Lipoamide acyltransferase component of branched-chain alpha-keto acid dehydrogenase complex, mitochondrial K196Y, P11182",-0.222 ± 0.058
9,"Lipoamide acyltransferase component of branched-chain alpha-keto acid dehydrogenase complex, mitochondrial L172N, P11182",-0.127 ± 0.07
10,"Lipoamide acyltransferase component of branched-chain alpha-keto acid dehydrogenase complex, mitochondrial R178A, P11182",-0.028 ± 0.043
11,"Lipoamide acyltransferase component of branched-chain alpha-keto acid dehydrogenase complex, mitochondrial L188C, P11182",-0.388 ± 0.062
12,"Lipoamide acyltransferase component of branched-chain alpha-keto acid dehydrogenase complex, mitochondrial A173P, P11182",-0.406 ± 0.087
13,"Lipoamide acyltransferase component of branched-chain alpha-keto acid dehydrogenase complex, mitochondrial N207P, P11182",-0.199 ± 0.051
14,"Lipoamide acyltransferase component of branched-chain alpha-keto acid dehydrogenase complex, mitochondrial T174E, P11182",-0.389 ± 0.053
15,"Lipoamide acyltransferase component of branched-chain alpha-keto acid dehydrogenase complex, mitochondrial N185A, P11182",-0.21 ± 0.074
16,"Lipoamide acyltransferase component of branched-chain alpha-keto acid dehydrogenase complex, mitochondrial L180K, P11182",-0.296 ± 0.2
17,"Lipoamide acyltransferase component of branched-chain alpha-keto acid dehydrogenase complex, mitochondrial K196Q, P11182",-0.077 ± 0.047
